For orientation: stoichiometry N means a count of units in the complex or per binding partner.

The chains are these.
B1: purified DnaD winged helix domain, wild type (B. subtilis, amino acids 1-128) (domain or fragment, UniProt P39787 1-128, looked up)
chain: MKKQQFIDMQEQGTSTIPNLLLTHYKQLGLNETELILLLKIKMHLEKGSYFPTPNQLQEGMSISVEECTNRLRMFIQKGFLFIEECEDQNGIKFEKYSLQPLWGKLYEYIQLAQNQTQERKAEGEQKS
B2: purified DnaD winged helix domain I83A (B. subtilis, amino acids 1-128) (domain or fragment, UniProt P39787 1-128, looked up)
chain: B1 chain with I83A
B3: purified DnaD winged helix domain F51A (B. subtilis, amino acids 1-128) (domain or fragment, UniProt P39787 1-128, looked up)
chain: B1 chain with F51A
B4: purified DnaA domain I, wild type (B. subtilis, amino acids 1-82) (domain or fragment, UniProt P05648 1-82, looked up)
chain: MENILDLWNQALAQIEKKLSKPSFETWMKSTKAHSLQGDTLTITAPNEFARDWLESRYLHLIADTIYELTGEELSIKFVIPQ

The series “cross-linking” concerns the molecule itself. Description: cross-linking.
The target of series [1] is B1. Description: cross-linking.

Where a chain is given by its changes, count along the chain named. Numbers in names are those of the source.

As to B1, the binding result in “cross-linking” was “binds”.
For B2, the “stoichiometry N” value in “cross-linking” is 4.
For the molecule B3, the “stoichiometry N” value in the series “cross-linking” stood at 4.
Turning to B4, in series [1], the binding result is “binds”.

(Values after publication PMC6351176 (Molecular microbiology, 2018).)
